Assay results published in the supplement of paper PMC9876800.

Test system: peptide library, one residue held at a place counted from the S/T acceptor
Experiment: relative phosphorylation of the sub-library (ratio to the mean residue at this position); higher = residue favoured
Conditions: human
Outline: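 Relative sub-library phosphorylation is the ratio of each sub-library's signal to the mean residue at that position. The signal came from phosphorimaging of spots on streptavidin membranes, quantified by densitometry, after purified recombinant kinases reacted with biotinylated degenerate peptide sub-libraries in 384-well plates. Reactions held 50 μM peptide and 50 μM ATP spiked with γ-32P-ATP for 90 min under kinase-specific conditions.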

Sequence of SIK2, construct: Full length (Q9H0K1 whole entry, looked up): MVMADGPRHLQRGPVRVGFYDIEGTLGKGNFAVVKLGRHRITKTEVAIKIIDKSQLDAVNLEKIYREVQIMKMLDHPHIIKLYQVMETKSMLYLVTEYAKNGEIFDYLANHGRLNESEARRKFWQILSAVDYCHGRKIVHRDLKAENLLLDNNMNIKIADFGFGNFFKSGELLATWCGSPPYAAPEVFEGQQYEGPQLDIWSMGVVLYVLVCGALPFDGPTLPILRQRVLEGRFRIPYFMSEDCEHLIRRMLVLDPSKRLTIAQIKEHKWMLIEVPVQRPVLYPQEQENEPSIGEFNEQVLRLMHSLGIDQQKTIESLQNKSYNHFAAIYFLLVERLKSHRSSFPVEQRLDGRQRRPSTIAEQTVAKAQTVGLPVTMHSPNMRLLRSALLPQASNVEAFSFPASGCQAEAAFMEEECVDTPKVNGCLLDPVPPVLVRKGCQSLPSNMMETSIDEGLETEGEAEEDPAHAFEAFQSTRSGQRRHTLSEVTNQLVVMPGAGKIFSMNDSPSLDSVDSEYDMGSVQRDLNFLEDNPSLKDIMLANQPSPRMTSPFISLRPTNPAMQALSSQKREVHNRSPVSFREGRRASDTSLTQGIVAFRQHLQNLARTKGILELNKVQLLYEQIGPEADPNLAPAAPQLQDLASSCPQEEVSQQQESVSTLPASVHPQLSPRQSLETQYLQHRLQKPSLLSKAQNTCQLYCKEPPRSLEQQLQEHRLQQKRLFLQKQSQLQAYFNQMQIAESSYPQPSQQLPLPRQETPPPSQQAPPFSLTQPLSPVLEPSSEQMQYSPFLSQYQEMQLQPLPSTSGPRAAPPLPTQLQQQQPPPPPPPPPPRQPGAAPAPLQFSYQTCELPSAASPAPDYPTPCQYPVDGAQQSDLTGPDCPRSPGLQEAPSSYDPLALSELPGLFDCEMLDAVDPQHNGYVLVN
Sequence of STK24, construct: Full length (Q9Y6E0 whole entry, looked up): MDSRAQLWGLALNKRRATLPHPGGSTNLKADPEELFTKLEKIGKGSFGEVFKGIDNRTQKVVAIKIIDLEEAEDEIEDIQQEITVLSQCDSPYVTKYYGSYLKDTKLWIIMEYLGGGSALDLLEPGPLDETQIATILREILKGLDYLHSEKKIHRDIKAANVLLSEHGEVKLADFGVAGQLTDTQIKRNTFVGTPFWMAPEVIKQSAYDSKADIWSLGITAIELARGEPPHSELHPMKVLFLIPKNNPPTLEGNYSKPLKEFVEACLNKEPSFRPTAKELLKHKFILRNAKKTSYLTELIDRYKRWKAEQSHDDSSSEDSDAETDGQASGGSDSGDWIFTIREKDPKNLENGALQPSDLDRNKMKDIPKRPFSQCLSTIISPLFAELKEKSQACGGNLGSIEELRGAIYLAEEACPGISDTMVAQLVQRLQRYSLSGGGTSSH

SIK2, construct: Full length (from UniProt Q9H0K1)
relative phosphorylation
Conditions	at +1	at +2	at +3	at +4	at -1	at -2	at -3	at -4	at -5
A fixed	0.683	0.923	0.762	0.745	0.883	1.45	0.789	0.944	0.972
D fixed	0.42	0.461	1.59	0.353	0.463	0.232	0.255	0.57	0.48
E fixed	0.487	0.486	0.54	0.309	0.388	0.208	0.327	0.599	0.463
F fixed	1.13	0.924	1.51	0.96	0.685	1.5	0.969	0.98	1.2
G fixed	0.622	0.518	0.556	0.631	2.45	0.96	0.658	0.991	0.89
H fixed	1.06	1.1	1.23	0.79	1.03	1.37	1.14	1.02	0.858
I fixed	1.05	0.988	0.821	2.46	0.591	0.561	0.627	0.762	1.09
K fixed	1.18	1.19	0.856	1.11	1.65	1.26	2.14	1.56	1.5
L fixed	1.17	1.15	0.988	2.94	0.929	0.52	0.752	0.828	1.76
M fixed	1.68	0.94	0.916	1.4	1.03	0.664	0.765	1.02	1.17
N fixed	1.03	1.03	2.08	0.635	1	0.583	0.526	0.828	0.757
P fixed	0.336	0.68	0.33	0.578	0.923	0.394	0.788	0.729	0.767
Q fixed	1.61	0.991	0.856	0.602	1.05	0.607	0.634	0.88	0.704
R fixed	1.48	1.7	1.03	0.83	1.77	1.4	3.76	2.09	1.41
V fixed	1	0.965	0.638	1.16	0.641	0.771	0.637	0.857	0.959
W fixed	0.951	1.74	1.19	0.809	0.605	2.67	1.37	1.29	1.04
Y fixed	1.11	1.21	1.12	0.688	0.918	1.85	0.864	1.06	0.967
pThr fixed	0.905	0.696	0.382	0.389	0.467	0.567	0.613	0.787	0.791
pTyr fixed	0.499	0.38	0.573	0.35	0.746	0.54	0.614	0.526	0.71

SRPK1, construct: Full length (from UniProt Q96SB4)
relative phosphorylation
Conditions	at +1	at +2	at +3	at +4	at -1	at -2	at -3	at -4	at -5
A fixed	0.85	1.23	0.682	1.04	1.12	1.65	0.811	1.21	1.51
D fixed	0.273	1.46	0.499	1.13	0.486	1.63	0.506	0.682	0.77
E fixed	0.377	1.33	0.412	0.886	0.589	0.981	0.363	0.734	0.686
F fixed	0.387	0.626	0.424	0.741	0.476	0.637	0.297	0.713	1
G fixed	0.942	1.03	0.911	1.12	0.959	1.34	0.634	1.14	1.28
H fixed	0.563	1.61	0.697	0.988	1.2	1.72	0.454	0.956	0.954
I fixed	0.607	0.588	0.46	0.823	0.554	0.51	0.372	0.736	0.796
K fixed	1.55	1.14	1.43	1.47	2.19	1.34	1.02	1.61	1.58
L fixed	0.698	0.623	0.46	0.781	0.741	0.429	0.326	0.725	0.788
M fixed	0.62	0.715	0.499	0.773	0.723	0.5	0.302	0.823	0.892
N fixed	0.613	1.15	0.796	1.05	1.02	1.19	0.433	0.962	0.867
P fixed	4.75	1.34	1.69	1.36	1.9	1.03	0.6	1.38	1.01
Q fixed	0.932	0.981	0.699	1.1	1.16	0.692	0.596	0.87	0.675
R fixed	2.33	1.27	5.99	1.4	2.17	1.6	9.31	2.29	1.45
V fixed	0.722	0.715	0.458	0.705	0.698	0.54	0.343	0.66	0.879
W fixed	0.417	0.582	0.452	0.886	0.42	0.616	0.312	0.735	1.04
Y fixed	0.378	0.607	0.439	0.745	0.572	0.594	0.322	0.771	0.829
pThr fixed	0.489	1.26	0.585	1.19	0.548	0.681	0.51	0.772	0.765
pTyr fixed	0.462	0.95	0.653	1.06	0.753	1.39	0.694	1.43	0.947

STK24, construct: Full length (from UniProt Q9Y6E0)
relative phosphorylation
Conditions	at +1	at +2	at +3	at +4	at -1	at -2	at -3	at -4	at -5
A fixed	0.627	0.917	0.954	0.963	1.01	0.99	1.02	1.14	1.34
D fixed	0.166	0.344	0.465	0.516	0.762	0.388	0.58	0.738	0.689
E fixed	0.175	0.268	0.443	0.499	0.483	0.344	0.586	0.869	0.689
F fixed	1.29	0.471	0.999	0.679	0.781	1.19	0.855	0.867	0.873
G fixed	0.498	1.11	1.15	0.979	1.88	1.34	1.48	1.34	1.2
H fixed	0.946	1.11	1.17	1.03	1.12	1.44	1.05	1.08	1.07
I fixed	1.77	0.493	0.827	0.727	0.43	0.782	0.675	0.743	0.713
K fixed	0.827	3.1	2.09	2.43	1.57	1.41	1.84	1.51	1.87
L fixed	1.76	0.472	1.01	0.716	0.98	0.635	0.737	0.75	0.719
M fixed	1.61	0.6	0.843	0.846	0.897	0.702	0.738	0.81	0.68
N fixed	0.547	0.871	0.812	0.998	1.27	1.05	1.06	0.97	0.902
P fixed	0.401	0.807	0.802	0.952	0.751	0.765	0.959	0.94	1.2
Q fixed	0.673	0.789	0.822	0.936	0.945	0.91	0.935	1.01	0.926
R fixed	0.919	3.78	1.79	2.24	1.79	1.44	1.71	1.5	1.5
V fixed	1.47	0.615	0.828	0.693	0.546	0.83	0.71	0.772	0.851
W fixed	2.07	0.626	1.04	1.04	0.809	1.15	1.05	1.01	0.906
Y fixed	1.25	0.618	0.968	0.76	0.981	1.64	1.01	0.951	0.868
pThr fixed	1.19	1.05	0.892	0.801	0.865	1.28	1.61	1.33	1.43
pTyr fixed	0.488	0.389	0.748	0.55	1.1	0.833	1.15	0.836	1.16
